For one substance, Kd results are on record in paper PMC9230529.

The assay concerns the target CD16a ectodomain (Human CD16a, amino acids Met1-Gln208, C-terminal His-tag) (human). Nature of the assay: BLI.

In the case of “SARS-CoV-2 ORF8 (aa16-121), His Tag (from UniProt P0DTC8 16-121) (natural protein)”, the dissociation constant Kd is 38.9 nM.

Broadly, the Kd is a measure of binding affinity in units of concentration. Read a high Kd as a looser complex.
